# Assay results reported in EP4736886A1, “METHOD FOR PREPARING ANTIBODY-SMALL MOLECULE DRUG CONJUGATE AND USE THEREOF” (priority 2023, dated 2025).
# Tests used:
# [1] = Size-exclusion chromatography analysis of aggregate formation; format: physicochemical; settings: DXd conjugates, FIG. 7 and FIG. 9
# Experimental: Size-exclusion chromatography analysis was performed. […]
# Based on Antibody 3 and Antibody 4, amino acid residues with different properties were inserted between the cysteine residues at positions 4 and 5. Specifically: nonpolar amino acids, exemplified by the insertion of two alanine residues (A); polar uncharged amino acids, exemplified by the insertion of two serine residues (S); basic amino acids, exemplified by the insertion of two lysine residues (K); and acidic amino acids, exemplified by the insertion of two glutamic acid residues (E) or two aspartic acid residues (D), as shown in Table 5. The different mutants were expressed and purified. […]
# The different mutants listed in Table 6 were expressed and purified. […] The thermal stability of these ten heavy-chain antibodies was further evaluated using dynamic light scattering (DLS). A DLS (Wyatt) instrument was used to monitor light scattering of the antibodies during heating from 25 °C to 85 °C, thereby determining the aggregation temperature (Tagg) of the antibodies.
# VHH1 was separately linked to the engineered human IgG2 Fc or the engineered human IgG4 Fc shown in Table 7 to construct heavy-chain antibodies. After expression and purification, Mutant 37, Mutant 38, Mutant 39, and Mutant 40 were obtained.
# [2] = Hydrophobic interaction chromatography and LC-MS analysis of drug loading; format: physicochemical; settings: after TCEP reduction and conjugation with maleimide-GGFG-DXd
# Experimental: Antibody 1 and Antibody 2 were separately incubated with TCEP (Sigma) to reduce and open the disulfide bonds between the two heavy chains, followed by the addition of maleimide-GGFG-DXd (MedChemExpress) for conjugation. The conjugates were then purified using a desalting column to remove excess small-molecule drug.
# OVCAR-3 cells = assay: Cell killing assay, cell viability by CellTiter-Glo; format: cell-based, human; settings: 5 days at 37°C; compared to Antibody 1-DXd, FIG. 11
# Experimental: OVCAR-3 cells were seeded into a 96-well plate at a density of 5,000 cells per well and cultured overnight at 37°C. Antibody 1-DXd, Mutant 22-DXd, Mutant 23-DXd, Mutant 37-DXd, Mutant 38-DXd, Mutant 39-DXd, and Mutant 40-DXd were serially diluted and added to the 96-well plate containing OVCAR-3 cells, followed by incubation at 37°C for 5 days. Cell viability was measured using CellTiter-Glo (Promega) to evaluate the killing effects of the antibody-drug conjugates.
Molecule,size-exclusion chromatography peak profile after conjugation [1],drug-to-antibody ratio (DAR) value [2],killing effect on OVCAR-3 cells (OVCAR-3 cells)
Mutant 37-DXd (conjugate) heavy: QVQLVESGGGLVQPGGSLRLSCAASGITFPVNAYGWYRQAPGKQRDLVAIISAGGTTNYADSVKGRFTISRDNSKNTLYLQMNSLRAEDTAVYYCYLQRRIGMLRDYWGQGTQVTVSSERKCDDCVECPPCPERKCCVECPPCPAPPVAGPSVFLFPPKPKDTLMISRTPEVTCVVVDVSHEDPEVQFNWYVDGVEVHNAKTKPREEQFNSTFRVVSVLTVVHQDWLNGKEYKCKVSNKGLPAPIEKTISKTKGQPREPQVYTLPPSREEMTKNQVSLTCLVKGFYPSDIAVEWESNGQPENNYKTTPPMLDSDGSFFLYSKLTVDKSRWQQGNVFSCSVMHEALHNHYTQKSLSLSPGK,normal,8,significantly enhanced killing effect
Mutant 38-DXd (conjugate) heavy: QVQLVESGGGLVQPGGSLRLSCAASGITFPVNAYGWYRQAPGKQRDLVAIISAGGTTNYADSVKGRFTISRDNSKNTLYLQMNSLRAEDTAVYYCYLQRRIGMLRDYWGQGTQVTVSSERKCEECVECPPCPERKCCVECPPCPAPPVAGPSVFLFPPKPKDTLMISRTPEVTCVVVDVSHEDPEVQFNWYVDGVEVHNAKTKPREEQFNSTFRVVSVLTVVHQDWLNGKEYKCKVSNKGLPAPIEKTISKTKGQPREPQVYTLPPSREEMTKNQVSLTCLVKGFYPSDIAVEWESNGQPENNYKTTPPMLDSDGSFFLYSKLTVDKSRWQQGNVFSCSVMHEALHNHYTQKSLSLSPGK,normal,8,significantly enhanced killing effect
